Test results from paper PMC5730761, “NS3 from Hepatitis C Virus Strain JFH-1 Is an Unusually Robust Helicase That Is Primed To Bind and Unwind Viral RNA”.

Assays:
[1] = target: T1, gt1b NS3 (Hepatitis C virus genotype 1b strain N, UniProt Q9WPH5 1028-1658); assay: filter binding; 3 mM Mg2+; legend names NS3-4A; 25 mM MOPS-NH4+ pH 6.5, 3 mM MgCl2, 30 mM NaCl, 1% glycerol, 2 mM DTT, 0.1% Triton X-100; filter binding 37 C, 0.5 nM RNA, Hill fit; stopped flow 25 C; conditions: protein: recombinant; tags: His6-SUMO removed (native N terminus); label: 5'-32P
[2] = target: T2, JFH-1 NS3 (Hepatitis C virus genotype 2a strain …, UniProt Q99IB8 1031-1661); assay: as above; conditions: protein: recombinant; tags: His6-SUMO removed (native N terminus); label: 5'-32P
[3] = target: T2, JFH-1 NS3; assay: filter binding; 3 mM Mg2+; (stopped-flow kon 59 uM-1 s-1, Fig 2A); 25 mM MOPS-NH4+ pH 6.5, 3 mM MgCl2, 30 mM NaCl, 1% glycerol, 2 mM DTT, 0.1% Triton X-100; filter binding 37 C, 0.5 nM RNA, Hill fit; stopped flow 25 C; conditions: protein: recombinant; tags: His6-SUMO removed (native N terminus); 5' Cy3 top strand via C3 amino linker (stopped flow); 3' overhang 18 nt on strand 1
[4] = target: T1, gt1b NS3; assay: filter binding; 3 mM Mg2+; (stopped-flow kon 13 uM-1 s-1, Fig 2A); 25 mM MOPS-NH4+ pH 6.5, 3 mM MgCl2, 30 mM NaCl, 1% glycerol, 2 mM DTT, 0.1% Triton X-100; filter binding 37 C, 0.5 nM RNA, Hill fit; stopped flow 25 C; conditions: protein: recombinant; tags: His6-SUMO removed (native N terminus); 5' Cy3 top strand via C3 amino linker (stopped flow); 3' overhang 18 nt on strand 1
[5] = target: T2, JFH-1 NS3; assay: filter binding; 3 mM Mg2+; (stopped-flow kon 69 uM-1 s-1, Fig 2B); 25 mM MOPS-NH4+ pH 6.5, 3 mM MgCl2, 30 mM NaCl, 1% glycerol, 2 mM DTT, 0.1% Triton X-100; filter binding 37 C, 0.5 nM RNA, Hill fit; stopped flow 25 C; conditions: protein: recombinant; tags: His6-SUMO removed (native N terminus); 5' Cy3 top strand via C3 amino linker (stopped flow); 3' overhang 12 nt on strand 1
[6] = target: T1, gt1b NS3; assay: filter binding; 3 mM Mg2+; (stopped-flow kon 9.9 uM-1 s-1, Fig 2B); 25 mM MOPS-NH4+ pH 6.5, 3 mM MgCl2, 30 mM NaCl, 1% glycerol, 2 mM DTT, 0.1% Triton X-100; filter binding 37 C, 0.5 nM RNA, Hill fit; stopped flow 25 C; conditions: protein: recombinant; tags: His6-SUMO removed (native N terminus); 5' Cy3 top strand via C3 amino linker (stopped flow); 3' overhang 12 nt on strand 1
[7] = target: T1, gt1b NS3; assay: filter binding; 3 mM Mg2+; (stopped-flow kon 3.5 uM-1 s-1, Fig 2C); 25 mM MOPS-NH4+ pH 6.5, 3 mM MgCl2, 30 mM NaCl, 1% glycerol, 2 mM DTT, 0.1% Triton X-100; filter binding 37 C, 0.5 nM RNA, Hill fit; stopped flow 25 C; conditions: protein: recombinant; tags: His6-SUMO removed (native N terminus); 5' Cy3 top strand via C3 amino linker (stopped flow); 3' overhang 6 nt on strand 1
[8] = target: T2, JFH-1 NS3; assay: filter binding; 3 mM Mg2+; (stopped-flow kon 15 uM-1 s-1, Fig 2C); 25 mM MOPS-NH4+ pH 6.5, 3 mM MgCl2, 30 mM NaCl, 1% glycerol, 2 mM DTT, 0.1% Triton X-100; filter binding 37 C, 0.5 nM RNA, Hill fit; stopped flow 25 C; conditions: protein: recombinant; tags: His6-SUMO removed (native N terminus); 5' Cy3 top strand via C3 amino linker (stopped flow); 3' overhang 6 nt on strand 1

CUGUGGCAUGUCCUAGCGUCGUAUCGAUCUGGUC (ssRNA) [ssT34]
Kd [1]: 7.56 ± 0.33 nM
Kd [2]: 8.36 ± 0.29 nM

B1: 12bp/18-OH (dsRNA)
RNA 1: CGGCAGCGAGGCAGAGGAGCAGAGGGAGCA
RNA 2: GCCUCGCUGCCG
Kd [3]: 6.56 ± 0.23 nM
Kd [4]: 7.25 ± 0.17 nM

B2: 12bp/12-OH (dsRNA)
RNA 1: CGGCAGCGAGGCAGAGGAGCAGCA
RNA 2: GCCUCGCUGCCG
Kd [5]: 7.69 ± 0.21 nM
Kd [6]: 15.7 ± 0.61 nM

B3: 12bp/6-OH (dsRNA)
RNA 1: CGGCAGCGAGGCAGGACA
RNA 2: GCCUCGCUGCCG
Kd [7]: 60.4 ± 4.38 nM
Kd [8]: 14.9 ± 0.52 nM
